# In the RNAGym collection of RNA variant scans (doi:10.7554/elife.80360):
# B1: HDV Ribozyme (parent)
# chain: GGCCGGCAUGGUCCCAGCCUCCUCGCUGGCGCCGGCUGGGCAACAUUCCGAGGGGACCGUCCCCUCGGUAAUGGCGAAUGGGACCCA
# Variants of: B1
# Test: self-cleavage, relative activity (ratio to wild type); higher = more cleavage; co-transcriptional
row,Variant,self-cleavage
1,GGCCGGCAUGGUCCCAGCCUCCUCGCUGGCGCCGGCUGGGCAACAAUCCGAGGGGACCGUCCGCUCGGUAAUGGCGAAUGGGACCCA [U46A C63G],0.723
2,GGCCGGCAUGGUCCCAGCCUCCUCGCUGGCGCCGGCUGGGCAACAAUCCGAGGGGACCGUCCCCUCGGUAAUGGCGAAUGGGACACA [U46A C85A],0.7
3,GGCCGGCAUGGUCCCAGCCUCCUCGCUGGCGCCGGCUGGGCAACAAUCCGAGGGGACCGUCCCCUCGGUAAUGGCGAAUGGGACGCA [U46A C85G],0.575
4,GGCCGGCAUGGUCCCAGCCUCCUCGCUGGCGCCGGCUGGGCAACAAUCCGAGGGGACCGUCCCCUCGGUAAUGGGGAAUGGGACCCA [U46A C75G],0.0594
5,GGCCGGCAUGGUCCCAGCCUCCUCGCUGGCGCCGGCUGGGCAACAAGCCGAGGGGACCGUCCCCUCGGUAAUGGCGAAUGGGACCCA [U46A U47G],0.369
6,GGCCGGCAUGGUCCCAGCCUCCUCGCUGGCGCCGGCUGGGCAACACUCCGAGGGGUCCGUCCCCUCGGUAAUGGCGAAUGGGACCCA [U46C A56U],1.09
7,GGCCGGCAUGGUCCCAGCCUCCUCGCUGGCGCCGGCUGGGCAACAAUCCGAGUGGACCGUCCCCUCGGUAAUGGCGAAUGGGACCCA [U46A G53U],0.712
8,GGCCGGCAUGGUCCCAGCCUCCUCGCUGGCGCCGGCUGGGCAACAAUCCGAGGGGACCGUCCCCUCCGUAAUGGCGAAUGGGACCCA [U46A G67C],0.76
9,GGCCGGCAUGGUCCCAGCCUCCUCGCUGGCGCCGGCUGGGCAACACUCCGAGGGGACCGUCCCCUCGGUUAUGGCGAAUGGGACCCA [U46C A70U],0.957
10,GGCCGGCAUGGUCCCAGCCUCCUCGCUGGCGCCGGCUGGGCAACACUCCGAGGGGACCGUCCCCUCGGUCAUGGCGAAUGGGACCCA [U46C A70C],0.795
11,GGCCGGCAUGGUCCCAGCCUCCUCGCUGGCGCCGGCUGGGCAACAAUCCGAGGGAACCGUCCCCUCGGUAAUGGCGAAUGGGACCCA [U46A G55A],0.716
12,GGCCGGCAUGGUCCCAGCCUCCUCGCUGGCGCCGGCUGGGCAACAAUCCGAGGGGACCGUCCCCUCGGCAAUGGCGAAUGGGACCCA [U46A U69C],0.779
13,GGCCGGCAUGGUCCCAGCCUCCUCGCUGGCGCCGGCUGGGCAACAAUCCGAGGGGACCGUCCCCUCGGUAAUGGCGAAUGGGACCGA [U46A C86G],0.831
14,GGCCGGCAUGGUCCCAGCCUCCUCGCUGGCGCCGGCUGGGCAACAAUCCGAGGGGACCGUCCCCUCGGUAAUGGCGAUUGGGACCCA [U46A A78U],0.156
15,GGCCGGCAUGGUCCCAGCCUCCUCGCUGGCGCCGGCUGGGCAACAAUCCGAGGGGACCGUCCCCUCGGUAAUGGCGAGUGGGACCCA [U46A A78G],0.277
16,GGCCGGCAUGGUCCCAGCCUCCUCGCUGGCGCCGGCUGGGCAACAAUCCGACGGGACCGUCCCCUCGGUAAUGGCGAAUGGGACCCA [U46A G52C],0.759
17,GGCCGGCAUGGUCCCAGCCUCCUCGCUGGCGCCGGCUGGGCAACAAUCCGAGGGGACCGUCCCCUCGGUAAUGGCGAAGGGGACCCA [U46A U79G],0.322
18,GGCCGGCAUGGUCCCAGCCUCCUCGCUGGCGCCGGCUGGGCAACAAUCCGAGGGGACCGUCCCCUCGGUAAUGGCGAAAGGGACCCA [U46A U79A],0.504
19,GGCCGGCAUGGUCCCAGCCUCCUCGCUGGCGCCGGCUGGGCAACAAUCCGAGGGGACCGUCCCAUCGGUAAUGGCGAAUGGGACCCA [U46A C64A],0.554
20,GGCCGGCAUGGUCCCAGCCUCCUCGCUGGCGCCGGCUGGGCAACAAUCCGAGGGGACCGUCCCGUCGGUAAUGGCGAAUGGGACCCA [U46A C64G],0.38
21,GGCCGGCAUGGUCCCAGCCUCCUCGCUGGCGCCGGCUGGGCAACAAUCCGAGGGGACCGUCCCUUCGGUAAUGGCGAAUGGGACCCA [U46A C64U],0.649
22,GGCCGGCAUGGUCCCAGCCUCCUCGCUGGCGCCGGCUGGGCAACACUCCGAGGGGACCGUCCCCUCGGUAAUGGCGAAUGGGACCCA [U46C],0.815

row,Variant,self-cleavage
1,GGCCGGCAUGGUCCCAGCCUCCUCGCUGGCGCCGGCUGGGCAACAAUCCGAGGGGACCGUCUCCUCGGUAAUGGCGAAUGGGACCCA [U46A C62U],0.712
2,GGCCGGCAUGGUCCCAGCCUCCUCGCUGGCGCCGGCUGGGCAACAAUCCGAGGGGACCGUCACCUCGGUAAUGGCGAAUGGGACCCA [U46A C62A],0.543
3,GGCCGGCAUGGUCCCAGCCUCCUCGCUGGCGCCGGCUGGGCAACAAUCCGAGGGGACCGUCCCCUCGAUAAUGGCGAAUGGGACCCA [U46A G68A],0.65
4,GGCCGGCAUGGUCCCAGCCUCCUCGCUGGCGCCGGCUGGGCAACAAUCCGAGGGGACCGUCCCCUCGUUAAUGGCGAAUGGGACCCA [U46A G68U],0.657
5,GGCCGGCAUGGUCCCAGCCUCCUCGCUGGCGCCGGCUGGGCAACAAUCCGAGGGGAACGUCCCCUCGGUAAUGGCGAAUGGGACCCA [U46A C57A],0.851
6,GGCCGGCAUGGUCCCAGCCUCCUCGCUGGCGCCGGCUGGGCAACAAUCCGAGGGGAUCGUCCCCUCGGUAAUGGCGAAUGGGACCCA [U46A C57U],0.657
7,GGCCGGCAUGGUCCCAGCCUCCUCGCUGGCGCCGGCUGGGCAACAAUCCGAGGGGACCGUCCCCUCGGUAAUGGCGAAUGGGAACCA [U46A C84A],0.629
8,GGCCGGCAUGGUCCCAGCCUCCUCGCUGGCGCCGGCUGGGCAACAAUCCGAGGGGACCGUCCCCUCGGUAAUGGCGAAUGGGAUCCA [U46A C84U],0.397
9,GGCCGGCAUGGUCCCAGCCUCCUCGCUGGCGCCGGCUGGGCAACAAUCUGAGGGGACCGUCCCCUCGGUAAUGGCGAAUGGGACCCA [U46A C49U],0.739
10,GGCCGGCAUGGUCCCAGCCUCCUCGCUGGCGCCGGCUGGGCAACAAUCGGAGGGGACCGUCCCCUCGGUAAUGGCGAAUGGGACCCA [U46A C49G],0.415
11,GGCCGGCAUGGUCCCAGCCUCCUCGCUGGCGCCGGCUGGGCAACAAUCCGAGGGGACCGUGCCCUCGGUAAUGGCGAAUGGGACCCA [U46A C61G],0.808
12,GGCCGGCAUGGUCCCAGCCUCCUCGCUGGCGCCGGCUGGGCAACACUCCGGGGGGACCGUCCCCUCGGUAAUGGCGAAUGGGACCCA [U46C A51G],0.639
13,GGCCGGCAUGGUCCCAGCCUCCUCGCUGGCGCCGGCUGGGCAACACUCCGCGGGGACCGUCCCCUCGGUAAUGGCGAAUGGGACCCA [U46C A51C],0.504
14,GGCCGGCAUGGUCCCAGCCUCCUCGCUGGCGCCGGCUGGGCAACACUCCGUGGGGACCGUCCCCUCGGUAAUGGCGAAUGGGACCCA [U46C A51U],0.846
15,GGCCGGCAUGGUCCCAGCCUCCUCGCUGGCGCCGGCUGGGCAACAAUCCGAGGGGACCGUCCCCUCGGUAAUGCCGAAUGGGACCCA [U46A G74C],0.297
16,GGCCGGCAUGGUCCCAGCCUCCUCGCUGGCGCCGGCUGGGCAACAAUCCGAGGGGACCGUCCCCUCGGUAAUGGCGAAUCGGACCCA [U46A G80C],0.0831
17,GGCCGGCAUGGUCCCAGCCUCCUCGCUGGCGCCGGCUGGGCAACAAUCCGAGGGGACCGUCCCCUCGGUAAUGGCGAAUGGGACCCU [U46A A87U],0.76
18,GGCCGGCAUGGUCCCAGCCUCCUCGCUGGCGCCGGCUGGGCAACAAUCCGAGGGGACCGUCCCCUCGGUAAUGGCGAAUGGGACCCG [U46A A87G],0.712
19,GGCCGGCAUGGUCCCAGCCUCCUCGCUGGCGCCGGCUGGGCAACAAUCCGAGGGGACCGUCCCCACGGUAAUGGCGAAUGGGACCCA [U46A U65A],0.914
20,GGCCGGCAUGGUCCCAGCCUCCUCGCUGGCGCCGGCUGGGCAACAAUCCGAGGGGACCGUCCCCCCGGUAAUGGCGAAUGGGACCCA [U46A U65C],0.65
21,GGCCGGCAUGGUCCCAGCCUCCUCGCUGGCGCCGGCUGGGCAACAAUCCGAGGGGACCGUCCCCGCGGUAAUGGCGAAUGGGACCCA [U46A U65G],0.675
22,GGCCGGCAUGGUCCCAGCCUCCUCGCUGGCGCCGGCUGGGCAACAAUCCGAGGGGACCGUCCCCUCGGUAAUGGCGAAUGAGACCCA [U46A G81A],0.271

row,Variant,self-cleavage
1,GGCCGGCAUGGUCCCAGCCUCCUCGCUGGCGCCGGCUGGGCAACAAUCCGAGGGGACCGACCCCUCGGUAAUGGCGAAUGGGACCCA [U46A U60A],0.751
2,GGCCGGCAUGGUCCCAGCCUCCUCGCUGGCGCCGGCUGGGCAACAAUGCGAGGGGACCGUCCCCUCGGUAAUGGCGAAUGGGACCCA [U46A C48G],0.802
3,GGCCGGCAUGGUCCCAGCCUCCUCGCUGGCGCCGGCUGGGCAACAAUUCGAGGGGACCGUCCCCUCGGUAAUGGCGAAUGGGACCCA [U46A C48U],0.739
4,GGCCGGCAUGGUCCCAGCCUCCUCGCUGGCGCCGGCUGGGCAACAAUCCGAGGGGACCGUCCCCUCGGUAAGGGCGAAUGGGACCCA [U46A U72G],0.65
5,GGCCGGCAUGGUCCCAGCCUCCUCGCUGGCGCCGGCUGGGCAACAAUCCGAGGGGACCGUCCCCUCGGUAACGGCGAAUGGGACCCA [U46A U72C],0.655
6,GGCCGGCAUGGUCCCAGCCUCCUCGCUGGCGCCGGCUGGGCAACAAUCCGAGGGGACCGUCCCCUCGGUAAAGGCGAAUGGGACCCA [U46A U72A],0.615
7,GGCCGGCAUGGUCCCAGCCUCCUCGCUGGCGCCGGCUGGGCAACAAUCCGAGGGGACCGUCCCCUCGGUAAUUGCGAAUGGGACCCA [U46A G73U],0.0811
8,GGCCGGCAUGGUCCCAGCCUCCUCGCUGGCGCCGGCUGGGCAACAAUCCUAGGGGACCGUCCCCUCGGUAAUGGCGAAUGGGACCCA [U46A G50U],0.73
9,GGCCGGCAUGGUCCCAGCCUCCUCGCUGGCGCCGGCUGGGCAACAAUCCCAGGGGACCGUCCCCUCGGUAAUGGCGAAUGGGACCCA [U46A G50C],0.597
10,GGCCGGCAUGGUCCCAGCCUCCUCGCUGGCGCCGGCUGGGCAACACUCCGAGGGGACCGUCCCCUCGGUACUGGCGAAUGGGACCCA [U46C A71C],0.772
11,GGCCGGCAUGGUCCCAGCCUCCUCGCUGGCGCCGGCUGGGCAACAAUCCGAGGGGACCGUCCCCUCGGUUAUGGCGAAUGGGACCCA [U46A A70U],0.587
12,GGCCGGCAUGGUCCCAGCCUCCUCGCUGGCGCCGGCUGGGCAACAAUCCGAGGGGACCGUCCCCUGGGUAAUGGCGAAUGGGACCCA [U46A C66G],1.05
13,GGCCGGCAUGGUCCCAGCCUCCUCGCUGGCGCCGGCUGGGCAACAAUCCGAGGGGACCCUCCCCUCGGUAAUGGCGAAUGGGACCCA [U46A G59C],0.57
14,GGCCGGCAUGGUCCCAGCCUCCUCGCUGGCGCCGGCUGGGCAACAAUCCGAGGGGACCUUCCCCUCGGUAAUGGCGAAUGGGACCCA [U46A G59U],0.674
15,GGCCGGCAUGGUCCCAGCCUCCUCGCUGGCGCCGGCUGGGCAACAAUCCGAGGCGACCGUCCCCUCGGUAAUGGCGAAUGGGACCCA [U46A G54C],0.706
16,GGCCGGCAUGGUCCCAGCCUCCUCGCUGGCGCCGGCUGGGCAACAAUCCGAGGGGACCGUCCCCUCGGUAAUGGCGCAUGGGACCCA [U46A A77C],0.119
17,GGCCGGCAUGGUCCCAGCCUCCUCGCUGGCGCCGGCUGGGCAACAAUCCGAGGGGACCGUCCCCUCGGUAAUGGCGGAUGGGACCCA [U46A A77G],0.646
18,GGCCGGCAUGGUCCCAGCCUCCUCGCUGGCGCCGGCUGGGCAACAAUCCGAGGGGACCGUCCCCUCGGUAAUGGCGUAUGGGACCCA [U46A A77U],0.115
19,GGCCGGCAUGGUCCCAGCCUCCUCGCUGGCGCCGGCUGGGCAACAAUCCGAGGGGACCGUCCCCUCGGUAAUGGCGAAUGGAACCCA [U46A G82A],0.156
20,GGCCGGCAUGGUCCCAGCCUCCUCGCUGGCGCCGGCUGGGCAACAAUCCGAGGGGACCGUCCCCUCGGUAAUGGCAAAUGGGACCCA [U46A G76A],0.831
